# Assay results as given in US20040181042A1 (MEDICAL AND BIOLOGICAL LABORATORIES, published 2004).
# B1: antibody 4396C (antibody, V domains shown)
# VH: EVQLQQSGPELVKTGASVKISCKASGYSFTGYYMHWVKQSHGKSLEWIGYISCYNGATSYNQKFKGKATFTVDTSSSTAYMQFNSLTSEDSAVYYCARGANWVFDYWGQGTTLTVSS
# VL: QAVVTQESALTTSPGGTVILTCRSSTGAVTTSNYANWVQEKPDHLFTGLIGGTSNRAPGVPVRFSGSLIGDKAALTITGAQTEDDAMYFCALWYSTHYVFGGGTKVTVLG
# Target: T1, aggregated Aβ in plaques of the cerebral cortex of a patient with Alzheimer's disease (human (brain of a patient with …, UniProt P05067 672-713))
# T1 construct: Tissue section fixed in 4% formaldehyde, embedded in paraffin, pre-treated with formic acid; also called neurotic plaques
# T1 sequence (P05067 672-713): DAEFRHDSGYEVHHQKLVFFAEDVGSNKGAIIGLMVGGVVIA
# Test: immunolabeling of sections of Alzheimer's disease cerebral cortex
# From the text: A section of the cerebral cortex of the brain of a patient with Alzheimer's disease was fixed in 4% formaldehyde and embedded in paraffin, then pre-treated with formic acid. […] Arrows indicate vessels in the serial sections.
binder,measurement,value
B1,binding result,no binding
